This note sets out measurements from article PMC10279719 (Nature Communications, 2023).

T1: PEAK1^IDR1 (residues 1082-1746), from insect cells, phosphorylated by Src (human, UniProt Q9H792 1082-1746, phosphotyrosine at Y1107 (by Src in vitro, shown by MS/MS); other Src sites not stated; biotin (EZ-Link NHS-PEG4-Biotin, 1:1 molar ratio))
T1 construct: human PEAK1, UniProt Q9H792, residues 1082-1746; also called PEAK1-IDR1 (+ Src phosphorylation); source: Sf21 insect cells, purified; phosphorylated in vitro with recombinant Src kinase domain
T1 sequence (looked up): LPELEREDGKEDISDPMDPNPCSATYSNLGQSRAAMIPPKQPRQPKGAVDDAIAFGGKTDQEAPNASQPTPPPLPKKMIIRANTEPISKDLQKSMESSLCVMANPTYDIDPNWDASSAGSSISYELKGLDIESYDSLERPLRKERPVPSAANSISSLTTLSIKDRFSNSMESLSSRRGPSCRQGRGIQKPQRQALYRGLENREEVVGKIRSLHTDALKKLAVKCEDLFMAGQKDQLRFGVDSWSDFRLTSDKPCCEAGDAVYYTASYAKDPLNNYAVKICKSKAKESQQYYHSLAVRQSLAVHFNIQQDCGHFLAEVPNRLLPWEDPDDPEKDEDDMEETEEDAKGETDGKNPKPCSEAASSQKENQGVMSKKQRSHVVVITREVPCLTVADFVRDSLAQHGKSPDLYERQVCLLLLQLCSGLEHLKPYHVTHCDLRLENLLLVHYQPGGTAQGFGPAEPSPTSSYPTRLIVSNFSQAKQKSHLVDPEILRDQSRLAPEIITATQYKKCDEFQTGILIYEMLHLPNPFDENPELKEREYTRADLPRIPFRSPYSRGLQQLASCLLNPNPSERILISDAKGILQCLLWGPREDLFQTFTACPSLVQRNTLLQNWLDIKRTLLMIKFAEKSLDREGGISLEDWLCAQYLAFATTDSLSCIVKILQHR

T2: PEAK2^IDR1 (residues 802-1406), from insect cells, phosphorylated by Src (human, UniProt Q86YV5 802-1406, phosphorylated with Src kinase, sites not stated; phosphorylation of the tandem site 14-3-3 motif (RAASSP) found by proteomic analysis; biotin (EZ-Link NHS-PEG4-Biotin, 1:1 molar ratio))
T2 construct: human PEAK2 (SgK223, PRAG1), UniProt Q86YV5, residues 802-1406; also called PEAK2-IDR1 (+ Src phosphorylation); source: Sf21 insect cells, purified; phosphorylated in vitro with recombinant Src kinase domain
T2 sequence (looked up): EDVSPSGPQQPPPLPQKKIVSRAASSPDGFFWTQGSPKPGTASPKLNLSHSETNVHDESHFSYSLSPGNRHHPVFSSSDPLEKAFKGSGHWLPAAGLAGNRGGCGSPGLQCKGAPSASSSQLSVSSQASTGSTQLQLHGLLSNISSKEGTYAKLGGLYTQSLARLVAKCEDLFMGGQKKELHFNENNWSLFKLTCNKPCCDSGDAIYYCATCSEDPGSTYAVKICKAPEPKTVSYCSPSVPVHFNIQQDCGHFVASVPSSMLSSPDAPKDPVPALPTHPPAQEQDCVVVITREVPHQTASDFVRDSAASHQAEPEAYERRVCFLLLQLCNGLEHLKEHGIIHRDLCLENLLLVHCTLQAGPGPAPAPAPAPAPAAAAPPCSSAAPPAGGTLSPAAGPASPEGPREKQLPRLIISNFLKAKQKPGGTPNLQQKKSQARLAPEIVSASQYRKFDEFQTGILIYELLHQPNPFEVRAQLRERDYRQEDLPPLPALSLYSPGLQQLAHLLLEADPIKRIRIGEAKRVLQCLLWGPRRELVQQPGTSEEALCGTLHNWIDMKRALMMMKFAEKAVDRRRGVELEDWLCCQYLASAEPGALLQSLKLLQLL

B1: PEAK SH2-pY consensus peptide (Ac-T(pY)SNLGQ-NH2) (peptide)
peptide: Ac-T[pY]SNLGQ-NH2
notes: also called consensus pY peptide; SH2-pY peptide; source: synthetic peptide, bought: Mimotopes (95% purity)
B2: PEAK1 1106-1121-pY1107 peptide (Ac-T(pY)SNLGQSRAAMIPPK-NH2) (peptide)
peptide: Ac-T[pY]SNLGQSRAAMIPPK-NH2
notes: human PEAK1 residues 1106-1121; source: synthetic peptide, bought: Mimotopes (95% purity)
B3: CrkII SH2 domain (CrkIISH2) (domain or fragment, human, UniProt P46108-1 6-120, looked up)
chain: DSEERSSWYWGRLSRQEAVALLQGQRHGVFLVRDSSTSPGDYVLSVSENSRVSHYIINSSGPRPPVPPSPAQPPPGVSPSRLRIGDQEFDSLPALLEFYKIHYLDTTTLIEPVSR
modifications: biotin (EZ-Link NHS-PEG4-Biotin) in the SPR experiment only
notes: CrkII, human, UniProt P46108-1, residues 6-120; Purifies as monomer with a proportion of dimer
B4: CrkII SH2 domain (CrkII^SH2, residues 6–120) (domain or fragment, human, UniProt P46108-1 6-120, looked up)
chain: B3 chain
modifications: biotin (EZ-Link NHS-PEG4-Biotin) where immobilised for SPR
notes: human CrkII residues 6-120, SH2 domain
B5: full length CrkII, monomer (CrkII^FL monomer) (natural protein, human, UniProt P46108-1 1-304, looked up)
chain: MAGNFDSEERSSWYWGRLSRQEAVALLQGQRHGVFLVRDSSTSPGDYVLSVSENSRVSHYIINSSGPRPPVPPSPAQPPPGVSPSRLRIGDQEFDSLPALLEFYKIHYLDTTTLIEPVSRSRQGSGVILRQEEAEYVRALFDFNGNDEEDLPFKKGDILRIRDKPEEQWWNAEDSEGKRGMIPVPYVEKYRPASASVSALIGGNQEGSHPQPLGGPEPGPYAQPSVNTPLPNLQNGPIYARVIQKRVPNAYDKTALALEVGELVKVTKINVSGQWEGECNGKRGHFPFTHVRLLDQQNPDEDFS
modifications: biotin (EZ-Link NHS-PEG4-Biotin, 1:1 molar ratio) where it was immobilised (a1)
notes: full length human CrkII, printed as UniProt P46108-1, residues 1-330
B6: full length CrkII, dimer (CrkII^FL dimer) (natural protein, human, UniProt P46108-1 1-304, looked up)
chain: B5 chain
modifications: biotin (EZ-Link NHS-PEG4-Biotin, 1:1 molar ratio) where it was immobilised (a1)
notes: as for B5
B7: PEAK1 1150-1162 proline-rich motif peptide (Ac-PTPPPLPKKMIIR-NH2) (peptide)
peptide: Ac-PTPPPLPKKMIIR-NH2
notes: source: synthetic peptide, bought: Mimotopes (95% purity)
B8: CrkII SH2-NSH3 construct lacking the CSH3 domain (CrkIIΔCSH3) (domain or fragment, human, UniProt P46108-1 1-228, looked up)
chain: MAGNFDSEERSSWYWGRLSRQEAVALLQGQRHGVFLVRDSSTSPGDYVLSVSENSRVSHYIINSSGPRPPVPPSPAQPPPGVSPSRLRIGDQEFDSLPALLEFYKIHYLDTTTLIEPVSRSRQGSGVILRQEEAEYVRALFDFNGNDEEDLPFKKGDILRIRDKPEEQWWNAEDSEGKRGMIPVPYVEKYRPASASVSALIGGNQEGSHPQPLGGPEPGPYAQPSVNT
notes: CrkII, human, residues 1-228
B9: CrkII^∆CSH3 (SH2-NSH3, residues 1–228) (domain or fragment, human, UniProt P46108-1 1-228, looked up)
chain: B8 chain
notes: human CrkII residues 1-228, lacking the CSH3 domain
B10: PEAK1^IDR1 (human PEAK1 residues 1082–1746) (domain or fragment, UniProt Q9H792 1082-1746, looked up)
chain: T1 sequence (looked up)
modifications: biotin (EZ-Link NHS-PEG4-Biotin) where immobilised for SPR; no phosphorylation observed at the tandem 14-3-3 motif
notes: human PEAK1 residues 1082-1746 (part of the IDR with Y1107 and the tandem site, SHED and PsK domains); the His tag is TEV-cleavable; also called PEAK1^IDR1 dimer; not shown: His tag, N-terminal, kept
B11: PEAK2 809-821 proline-rich motif peptide (Ac-QPPPLPQKKIVSR-NH2) (peptide)
peptide: Ac-QPPPLPQKKIVSR-NH2
notes: human PEAK2 (SgK223, PRAG1) residues 809-821; source: synthetic peptide, bought: Mimotopes (95% purity)

In data set [1] the target is B6. Description: SPR; biotinylated adapter proteins captured with a biotin CAPture kit, pY peptides as analytes; Biacore 8K+, 20 °C, HBS-TP (20 mM HEPES pH 7.4, 150 mM NaCl, 1 mM TCEP, 0.005% Tween-P20) with 2% DMSO; 1 M NaCl regeneration; steady state, 1:1 model. Conditions: both partners purified. A general note: SPR reads the build-up and loss of mass on a sensor chip optically.

Data set [2] has as its target T3, CrkII SH2 domain (CrkII^SH2, residues 6-120) (human, UniProt P46108-1 6-120, biotin (EZ-Link NHS-PEG4-Biotin, 1:1 molar ratio) where it was immobilised (a1)).
T3 construct: human CrkII SH2 domain, UniProt P46108-1, residues 6-120; The His tag is TEV-cleavable and was cleaved 'when required'
The description is as above. Conditions: both partners purified.

Data set [3] concerns the target B5. The description is as above. As to conditions: both partners purified.
Data set [4] concerns the molecule itself. Description: SEC; S75 16/600 profile of the purified CrkII constructs, with SDS-PAGE of fractions. Background: Size exclusion chromatography separates by hydrodynamic size, large species first.
Data set [5] concerns the molecule itself. Description: SEC; single purified proteins on Superdex 200 (purification and re-runs), 20 mM HEPES pH 7.5–8.5, 150 mM NaCl, 1 mM TCEP; oligomeric state.
In data set [6] the target is T1, PEAK1^IDR1 (residues 1082-1746), from …. Description: SPR; biotinylated PEAK proteins (with or without Src phosphorylation) captured with a biotin CAPture kit; Grb2 FL, Grb2 SH2, CrkII SH2, CrkII FL monomer or dimer as analytes; Biacore 8K+, 20 °C, HBS-TP with NaCl raised to 500 mM; 1 M NaCl regeneration; steady state. As to conditions: both partners purified.
Data set [7] has as its target T2, PEAK2^IDR1 (residues 802-1406), from …. The description is as above. Conditions: both partners purified.
Data set [8] addresses T4, CrkII N-terminal SH3 domain (CrkII^NSH3, residues 134-191) (human, UniProt P46108-1 134-191).
T4 construct: human CrkII NSH3 domain, UniProt P46108-1, residues 134-191; Amine coupled to a CM5 chip in a2; analyte in a4; in the syringe in ITC
Description: SPR; CrkII NSH3 amine coupled to a CM5 chip, PRM peptides as analytes (100 µM-100 nM); Biacore S200, 20 °C, HBS-TP; steady state, 1:1 model. Conditions: both partners purified.

Non-standard residues stand in square brackets, D forms with d. pY = N[C@@H](Cc1ccc(OP(=O)(O)O)cc1)C(=O)O

Usually Kd stands for the constant that tells how readily two partners part at equilibrium.

With B1, the Kd stood at 12700 nM in data set [1], 8800 nM in data set [2] and 14500 nM in data set [3].

Consider B2, for which the figures for the equilibrium dissociation constant (Kd) in data set [1], in data set [2] and in data set [3] were 3100 nM, 3200 nM and 3500 nM, respectively.

Regarding B3, the binding result in data set [4] is given as “binds”.

With B4, the binding result in data set [5] is on record as “binds”.

Take B5: the Kd in data set [6] came out at 1500 nM; in data set [7], 2120 nM.

Take B6: the Kd in data set [6] stood at 1490 nM; in data set [7] it was 1380 nM.

On to B7, for which the affinity in data set [8], expressed as Kd, was 900 nM.

In the case of B8, the binding result in data set [4] is on record as “binds”.

With B9, the binding result in data set [5] is reported as “binds”.

In the case of B10, the binding result in data set [5] was “binds”.

Turning to B11, the Kd in data set [8] is 2400 nM.
